According to US20190284293A1, “COMBINATION THERAPY WITH ANTI-CD73 ANTIBODIES” (BRISTOL-MYERS SQUIBB COMPANY, priority 2016, published 2019):
Changes are numbered by the printed parent chain.

T1: CD32a-H131 (FcgRIIa-H131) (Homo sapiens, UniProt P12318)
T1 sequence (P12318 34-217 limits assumed): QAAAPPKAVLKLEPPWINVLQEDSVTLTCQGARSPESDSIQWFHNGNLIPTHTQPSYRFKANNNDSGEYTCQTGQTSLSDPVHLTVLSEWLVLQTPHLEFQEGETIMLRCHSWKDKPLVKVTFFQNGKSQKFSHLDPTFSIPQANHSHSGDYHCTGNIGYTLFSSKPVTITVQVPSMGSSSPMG

T2: CD32b (FcgRIIb) (Homo sapiens, UniProt P31994)
T2 sequence (P31994 43-310): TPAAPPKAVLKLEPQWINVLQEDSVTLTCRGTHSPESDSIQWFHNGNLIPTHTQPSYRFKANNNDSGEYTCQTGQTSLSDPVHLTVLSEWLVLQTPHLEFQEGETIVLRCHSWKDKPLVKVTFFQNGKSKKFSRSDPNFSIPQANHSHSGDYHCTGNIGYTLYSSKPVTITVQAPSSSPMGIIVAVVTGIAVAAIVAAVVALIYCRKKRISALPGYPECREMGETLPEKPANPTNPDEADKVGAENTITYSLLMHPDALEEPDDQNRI

T3: CD32a-R131 (FcgRIIa-R131) (Homo sapiens, UniProt P12318, H167R)
T3 sequence (P12318 34-217 H167R limits assumed): T1 sequence (P12318 34-217 limits assumed) with H134R

B1: mAb8-IgG2.3G1-AY-V27 (protein)
constant: ASTKGPSVFPLAPCSRSTSESTAALGCLVKDYFPEPVTVSWNSGALTSGVHTFPAVLQSSGLYSLSSVVTVPSSNFGTQTYTCNVDHKPSNTKVDKTVERKSCVECPPCPAPELLGGPSVFLFPPKPKDTLMISRTPEVTCVVVDVEHEDPEVKFNWYVDGVEVHNAKTKPREEQYNSTYRVVSVLTVLHQDWLNGKEYKCKVSNKALPAPIEKTISKAKGQPREPQVYTLPPSREEMTKNQVSLTCLVKGFYPSDIAVEWESNGQPENNYKTTPPVLDSDGSFFLYSKLTVDKSRWQQGNVFSCSVMHEALHNHYTQKSLSLSPGK
modifications: left off: another chain or arm of the molecule
B2: mAb10-IgG2.3G1-AY-V27 (protein)
constant: B1 constant
modifications: left off: another chain or arm of the molecule
B3: mAb11-IgG2.3 (protein)
constant: ASTKGPSVFPLAPCSRSTSESTAALGCLVKDYFPEPVTVSWNSGALTSGVHTFPAVLQSSGLYSLSSVVTVPSSNFGTQTYTCNVDHKPSNTKVDKTVERKSCVECPPCPAPPVAGPSVFLFPPKPKDTLMISRTPEVTCVVVDVSHEDPEVQFNWYVDGVEVHNAKTKPREEQFNSTFRVVSVLTVVHQDWLNGKEYKCKVSNKGLPAPIEKTISKTKGQPREPQVYTLPPSREEMTKNQVSLTCLVKGFYPSDIAVEWESNGQPENNYKTTPPMLDSDGSFFLYSKLTVDKSRWQQGNVFSCSVMHEALHNHYTQKSLSLSPGK
modifications: left off: another chain or arm of the molecule
B4: mAb12-IgG2.5 (protein)
constant: B3 constant with C14S, S102C
modifications: left off: another chain or arm of the molecule
B5: mAb13-IgG2.3 (protein)
constant: B3 constant
modifications: left off: another chain or arm of the molecule
B6: mAb11-IgG2.5 (protein)
constant: B3 constant with C14S, S102C
modifications: left off: another chain or arm of the molecule
B7: mAb6-IgG2.3 (protein)
constant: B3 constant
modifications: left off: another chain or arm of the molecule
B8: mAb7-IgG2.5 (protein)
constant: B3 constant with C14S, S102C
modifications: left off: another chain or arm of the molecule
B9: mAb8-IgG2.5 (protein)
constant: B3 constant with C14S, S102C
modifications: left off: another chain or arm of the molecule
B10: mAb4-IgG2.3 (protein)
constant: B3 constant
modifications: left off: another chain or arm of the molecule
B11: mAb5-IgG2.3 (protein)
constant: B3 constant
modifications: left off: another chain or arm of the molecule
B12: mAb12-IgG2.3 (protein)
constant: B3 constant
modifications: left off: another chain or arm of the molecule
B13: mAb10-IgG2.5 (protein)
constant: B3 constant with C14S, S102C
modifications: left off: another chain or arm of the molecule

What was measured:
Test in all cases: SPR, antibody binding to anti-his Fab captured FcgR-his (% Rmax)
Settings in all cases: 1 μM antibody
CD16B-NA2 (FcgRIIIb-NA2) = CD16B-NA2 (FcgRIIIb-NA2) (Homo sapiens, UniProt O75015)
CD16B-NA2 (FcgRIIIb-NA2), sequence (O75015 17-200 limits assumed): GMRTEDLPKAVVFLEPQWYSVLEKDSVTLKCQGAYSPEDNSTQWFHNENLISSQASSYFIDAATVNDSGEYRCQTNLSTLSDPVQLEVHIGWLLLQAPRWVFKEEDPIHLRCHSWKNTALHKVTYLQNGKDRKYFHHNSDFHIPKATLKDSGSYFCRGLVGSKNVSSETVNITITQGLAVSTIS
Procedure: (§1) The binding of antibodies to Fc gamma receptors (FcγRs or FcgRs) was studied using biosensor technologies including Biacore surface plasmon resonance (SPR) and Fortebio Biolayer Interferometry (BLI). SPR studies were performed on a Biacore T100 instrument (GE Healthcare) at 25° C. The Fab fragment from a murine anti-6×His antibody was immobilized on a CM5 sensor chip using EDC/NHS to a density of −3000 RU. Various his-tagged FcgRs (7 ug/ml) were captured via the C-terminal his-tag using a contact time of 30 s at 10 ul/min, and the binding of 1.0 μM antibody was evaluated in a running buffer of 10 mM NaPO4, 130 mM NaCl, 0.05% p20 (PBS-T) pH 7.1. FcgRs used for these experiments included CD64 (FcgRI), CD32a-H131 (FcgRIIa-H131), CD32a-R131 (FcgRIIa-R131), CD32b (FcgRIIb), CD16a-V158 (FcgRIIIa-V158), CD16b-NA1 (FcgRIIIb-NA1), and CD16B-NA2 (FcgRIIIb-NA2). BLI experiments were performed on a Fortebio Octet RED instrument (Pall, Fortebio) at 25° C. in 10 mM NaPO4, 130 mM NaCl, 0.05% p20 (PBS-T) pH 7.1. Antibodies were captured out of undiluted expression supernatants on protein A coated sensors, followed by the binding of 1 μM hCD32a-H131, hCD32a-R131, hCD32b, hCD16a-V158, or 0.1 μM hCD64 analytes.

[1] = target: T1, CD32a-H131 (FcgRIIa-H131)
Procedure: as §1

CD32b (FcgRIIb) = target: T2, CD32b (FcgRIIb)
Procedure: as §1

[2] = target: T3, CD32a-R131 (FcgRIIa-R131)
Procedure: as §1

CD64 (FcgRI) = CD64 (FcgRI) (Homo sapiens, UniProt P12314)
CD64 (FcgRI), sequence (P12314 16-374): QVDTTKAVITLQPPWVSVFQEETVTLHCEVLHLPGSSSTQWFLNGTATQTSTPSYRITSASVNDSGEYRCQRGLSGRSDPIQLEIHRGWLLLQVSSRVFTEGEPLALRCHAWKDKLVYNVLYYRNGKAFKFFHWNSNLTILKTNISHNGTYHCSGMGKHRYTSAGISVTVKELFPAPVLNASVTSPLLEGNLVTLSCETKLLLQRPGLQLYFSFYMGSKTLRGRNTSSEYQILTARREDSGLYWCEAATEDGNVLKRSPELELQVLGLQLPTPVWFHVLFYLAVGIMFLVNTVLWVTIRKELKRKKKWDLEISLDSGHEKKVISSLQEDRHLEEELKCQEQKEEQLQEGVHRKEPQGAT
Procedure: as §1

[3] = target: CD16a-V158 (FcgRIIIa-V158) (Homo sapiens, UniProt P08637, F176V)
CD16a-V158 (FcgRIIIa-V158), sequence (P08637 17-208 F176V limits assumed): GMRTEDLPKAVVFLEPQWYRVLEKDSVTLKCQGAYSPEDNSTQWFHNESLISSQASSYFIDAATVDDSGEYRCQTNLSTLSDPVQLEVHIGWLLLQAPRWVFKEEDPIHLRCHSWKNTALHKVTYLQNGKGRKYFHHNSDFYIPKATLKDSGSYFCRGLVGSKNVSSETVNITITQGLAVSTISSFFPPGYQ
Procedure: as §1

Row | Molecule | % Rmax hCD16B-NA2 (CD16B-NA2 (FcgRIIIb-NA2)) [%] | % Rmax hCD32a-H131 [1] [%] | % Rmax hCD32b (CD32b (FcgRIIb)) [%] | % Rmax hCD32a-R131 [2] [%] | % Rmax hCD64 (CD64 (FcgRI)) [%] | % Rmax hCD16a-V158 [3] [%]
1 | B1 | 7 | 67 | 67 | 80 | 78 | 
2 | B2 | 3 |  | 40 | 57 | 69 | 12
3 | B3 | 0 | 44 | 5 | 17 | 2 | 1
4 | B4 | 0 |  | 1 | 6 | 1 | 1
5 | B5 | 0 | 40 | 1 | 7 | 2 | 1
6 | B6 | −1 | 40 | 3 | 13 | 0 | 0
7 | B7 | 0 | 66 | 3 | 14 | 3 | 1
8 | B8 | 0 | 72 | 2 | 19 | 4 | 2
9 | B9 | 0 | 59 | 3 | 14 | 3 | 2
10 | B10 | 0 | 39 | 1 | 6 | 1 | 1
11 | B11 | 0 | 100 | 4 | 30 | 6 | 3
12 | B12 | 0 | 39 | 1 | 7 | 2 | 1
13 | B13 | 0 |  | 1 | 5 | 1 | 1
